Reference: publication PMC10184913

B1: GmC4H20 (Glycine max) (protein)
chain: MGLQIKEPLLFTLVTISLISITKLLHSYFSIPFSPSNLSIAIATLIFVLISYKFSSSSIKHSSTTLPPGPLSVPIFGNWLQVGNDLNHRLLASMSQTYGPVFLLKLGSKNLVVVSDPELATQVLHAQGVEFGSRPRNVVFDIFTGNGQDMVFTVYGDHWRKMRRIMTLPFFTNKVVHNYSNMWEEEMDLVVRDLNVNERVRSEGIVIRRRLQLMLYNIMYRMMFDAKFESQEDPLFIQATRFNSERSRLAQSFEYNYGDFIPLLRPFLRGYLNKCKDLQSRRLAFFNTHYVEKRRQIMAANGEKHKISCAMDHIIDAQMKGEISEENVIYIVENINVAAIETTLWSIEWAVAELVNHPTVQSKIRDEISKVLKGEPVTESNLHELPYLQATVKETLRLHTPIPLLVPHMNLEEAKLGGHTVPKESKVVVNAWWLANNPSWWKNPEEFRPERFLEEECATDAVAGGKVDFRFVPFGVGRRSCPGIILALPILGLVIAKLVKSFQMSAPAGTKIDVSEKGGQFSLHIANHSTVLFHPIKTL
B2: GmC4H14 (Glycine max) (protein)
chain: MDLLLLEKTLIGLFLAAVVAIAVSTLRGRKFKLPPGPLPVPIFGNWLQVGDDLNHRNLTDLAKKFGDIFLLRMGQRNLVVVSSPELAKEVLHTQGVEFGSRTRNVVFDIFTGKGQDMVFTVYGEHWRKMRRIMTVPFFTNKVVQQYRHGWESEAAAVVEDVKNNPDAAVSGTVIRRRLQLMMYNNMYRIMFDRRFESEEDPIFQRLRALNGERSRLAQSFEYNYGDFIPILRPFLKGYLKICKEVKETRLKLFKDYFVDERKKLGSIKSSNNNELKCAIDHILDAQRKGEINEDNVLYIVENINVAAIETTLWSIEWGIAELVNHPEIQQKVRDEIDRVLEAGHQVTEPDIQKLPYLQAVVKETLRLRMAIPLLVPHMNLHDAKLGGYDIPAESKILVNAWWLANNPAHWKKPEEFRPERFLEEELHVEANGNDFRYLPFGVGRRSCPGIILALPILAITLGRLVQNFELLPPPGQSQIDTSEKGGQFSLHILKHSTIVAKPRSF
B3: GmC4H2 (Glycine max) (protein)
chain: MDLLLLEKTLIGLFLAAVVAIAVSTLRGRKFKLPPGPLPVPIFGNWLQVGDDLNHRNLTDLAKKFGDIFLLRMGQRNLVVVSSPELAKEVLHTQGVEFGSRTRNVVFDIFTGKGQDMVFTVYGEHWRKMRRIMTVPFFTNKVVQQYRHGWESEAAAVVEDVKKNPDAAVSGTVIRRRLQLMMYNNMYRIMFDRRFESEEDPIFQRLRALNGERSRLAQSFEYNYGDFIPILRPFLKGYLKICKEVKETRLKLFKDYFVDERKKLGSTKSTNNNNELKCAIDHILDAQRKGEINEDNVLYIVENINVAAIETTLWSIEWGIAELVNHPEIQQKLRDEIDRVLGAGHQVTEPDIQKLPYLQAVVKETLRLRMAIPLLVPHMNLHDAKLGGYDIPAESKILVNAWWLANNPAHWKKPEEFRPERFFEEESLVEANGNDFRYLPFGVGRRSCPGIILALPILGITLGRLVQNFELLPPPGQSQIDTSEKGGQFSLHILKHSTIVAKPRSF

The proteins below were run on O=C(O)/C=C/c1ccccc1 (assay: cells, lysate or membranes). Conditions: 1 mM NADPH, 50 mM phosphate pH 7.6, 25°C, co-expressed LjCPR1.

Protein	Km [µM]
B1	3.83 ± 0.44
B2	2.74 ± 0.18
B3	6.438 ± 0.74
